Consider one molecule from patent publication US8247376B2, “NGAL for reduction and amelioration of ischemic and nephrotoxic injuries” (The Trustees of Columbia University, priority 2004, dated 2012).

This assay relates to ischemia-reperfusion injury in mice. The experiment in a line: Serum creatinine 24 h after bilateral renal artery clamping, NGAL intravenous. It is filed as in vivo. On the procedure: Purified endotoxin-free NGAL was administered either intravenously into mice via tail vein injections, subcutaneously, or intraperitoneally. In preliminary studies, animals were treated with three different concentrations of NGAL (50, 100, or 250 μg of a 250 μg/100 solution), subjected to 30 minutes of bilateral renal artery clamping one hour later, and examined after 24 hours of reflow. […] All subsequent studies as reported here were carried out using the 250 μg dose of NGAL. Comparisons were made between five different animal groups: non-ischemic controls (n=8), ischemic controls pre-treated with saline alone (n=8), NGAL pre-treated one hour prior to renal artery clamping (n=6), NGAL treated during renal artery clamping (n=6), and NGAL treated one hour post renal artery clamping (n=6).
Male C57BL/6 mice (20-25 gr; Charles River) were anesthetized with intraperitoneal pentobarbital (50 mg/kg) and placed on a heating pad under a warming light to maintain 37© core body temperature. Kidneys were exposed through an abdominal section and the right kidney was either removed or its vascular pedicle and ureter ligated. The vascular pedicle of the left kidney or both kidneys was clamped by a microaneurysm clip (Kent Scientific) for 30 minutes after right nephrectomy. This period of ischemia generated reproducible renal injury but minimized mortality. During the procedure, PBS (0.5 ml) was used to dampen the peritoneum. The animal was closed with 5-0 Nylon. Saline, NGAL, retinol-loaded retinol binding protein (RBP), enterochelin, or desferroxamine mesylate (DFO) were injected into the peritoneum or subcutaneously 15 min. prior to ischemia or 1-2 hr after reperfusion.
For some studies, the mice were allowed to recover in a warmed cage, and timed urine collections were obtained. […] The mice were killed, the kidneys perfusion fixed in situ with 4% paraformaldehyde in PBS, and both kidneys harvested. One half of each kidney was snap frozen in liquid nitrogen and stored at −70° C. until further processing; a sample was fixed in formalin, paraffin-embedded, and sectioned (4 μm). Paraffin sections were stained with hematoxylin-eosin and examined histologically. The other half of each kidney was embedded in OCT compound (Tissue-Tek) and frozen sections (4 μm) obtained for immunohistochemistry.

B1: NGAL: Purified endotoxin-free recombinant NGAL expressed as GST fusion protein in bacteria, thrombin cleaved (protein, UniProt P80188 21-198, looked up)
Neutrophil …: QDSTSDLIPAPPLSKVPLQQNFQDNQFQGKWYVVGLAGNAILREDKDPQKMYATIYELKEDKSYNVTSVLFRKKKCDYWIRTFVPGCQPGEFTLGNIKSYPGLTSYLVRVVSTNYNQHAMVFFKKVSQNREYFKITLYGRTKELTSELKENFIRFSKSLGLPENHIVFPVPIDQCIDG
On to B1, for which the “protection from the tubular damage and azotemia” value (250 μg NGAL one hour before 30 min bilateral renal artery clamping, 24 h reflow, vs saline, doses 50, 100, 250 μg tested) was “significant protection from the tubular damage and azotemia”. Besides, the “serum creatinine at 24 hours of reflow” value by setting is: (NGAL 250 μg iv during ischemia (Dur NGAL)) 1.5±0.2 mg/di; (NGAL 250 μg iv one hour after ischemia (Post NGAL)) 1.95±0.2 mg/di; (NGAL 250 μg iv one hour before ischemia (Pre NGAL), saline 2.6±0.28, non-ischemic 0.65±0.13) 1.25 ± 0.3 mg/dL.
